Target: IL-17A (agonist in the IL-17RA/IL17RC dimerization assay) (UniProt Q16552 24-155)
Test: cell-based or functional assay

Chain of IL-17A (agonist in the IL-17RA/IL17RC dimerization assay) (Q16552 24-155 limits assumed): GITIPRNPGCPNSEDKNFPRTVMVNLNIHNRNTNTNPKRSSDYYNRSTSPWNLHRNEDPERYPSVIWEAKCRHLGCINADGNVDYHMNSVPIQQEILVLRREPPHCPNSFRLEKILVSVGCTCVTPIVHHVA

Row | Binder | IC50 in IL-17RA/IL7RC dimerization assay
1 | Ac-IHVTIPADLWDWVEE-NH2 [peptide of SEQ ID NO: 15] | < 0.4 µM
2 | Ac-IHVTIPADLWDWLNK-NH2 [peptide of SEQ ID NO: 216] | < 10 µM
3 | Ac-IHVTIPADLWNWINK-NH2 [peptide of SEQ ID NO: 208] | < 10 µM
4 | Ac-IHVTIPADLWDWENK-NH2 [peptide of SEQ ID NO: 212] | < 10 µM
5 | Ac-IHVTIPADLWDWINH-NH2 [peptide of SEQ ID NO: 222] | < 10 µM
6 | Ac-IHVTIPADLWDWIDK-NH2 [peptide of SEQ ID NO: 221] | < 10 µM
7 | Ac-IHVTIPADLWDWKNK-NH2 [peptide of SEQ ID NO: 213] | < 10 µM
8 | Ac-IHVTIPADLWDFINK-NH2 [peptide of SEQ ID NO: 210] | < 10 µM
9 | Ac-IHVTIPADLWDWGNK-NH2 [peptide of SEQ ID NO: 215] | < 10 µM
10 | Ac-IHVTIPADLWDHINK-NH2 [peptide of SEQ ID NO: 209] | < 10 µM
11 | Ac-VHVTVPQELYEWVRR-NH2 [peptide of SEQ ID NO: 226] | < 10 µM
12 | Ac-IHVTIPADLWDWIQK-NH2 [peptide of SEQ ID NO: 220] | < 10 µM
13 | Ac-VMVTIPADLYEWINK-NH2 [peptide of SEQ ID NO: 16] | < 0.4 µM
14 | Ac-IHVTIPADLWDWANK-NH2 [peptide of SEQ ID NO: 214] | < 10 µM
15 | Ac-IHVTIPADLWDWFNK-NH2 [peptide of SEQ ID NO: 218] | < 10 µM
16 | Ac-VHVTVPQELWEWVEE-NH2 [peptide of SEQ ID NO: 227] | < 10 µM
17 | Ac-IHVTIPADLWDWIND-NH2 [peptide of SEQ ID NO: 223] | < 10 µM
18 | Ac-IHVTIPADLWDWPNK-NH2 [peptide of SEQ ID NO: 217] | < 10 µM
19 | Ac-IHVTIPADLWDWYNK-NH2 [peptide of SEQ ID NO: 219] | < 10 µM
20 | Ac-VHVTVPQELWEWVRR-NH2 [peptide of SEQ ID NO: 224] | < 10 µM
21 | Ac-VHVTVPQELFEWVEE-NH2 [peptide of SEQ ID NO: 228] | < 10 µM
22 | Ac-VHVTVPQELFEWVRR-NH2 [peptide of SEQ ID NO: 225] | < 10 µM
23 | Ac-IHVTIPADLWDYINK-NH2 [peptide of SEQ ID NO: 211] | < 10 µM
